Laboratory results reported in article PMC12592476 (2025).

Columns and labels:
[1] = molecular target: T1, F-actin (rabbit skeletal α-actin, polymerized) (rabbit, UniProt P68135 1-377); test: ADP-F-actin
[2] = molecular target: T2, bovine brain Arp2/3 complex (bovine, UniProt P61157 1-418; A7MB62 1-394; Q58CQ2 1-372; Q3MHR7 1-300; Q3T035 1-178; Q148J6 …); test: ITC; ADP-bound Arp2/3 complex
[3] = molecular target: T2, bovine brain Arp2/3 complex; test: ITC; ATP-bound Arp2/3 complex
[4] = molecular target: T1, F-actin (rabbit skeletal α-actin, …); test: ADP-BeF3- F-actin
[5] = molecular target: T1, F-actin (rabbit skeletal α-actin, …); test: ADP-F-actin (- BeF3-)

Binder | Kd [1] | further results
human Coro7 β2 (domain or fragment) KFRHAQGTVLHRDSHITNLKGLNLTTPGESDGFCANKLRVAVPLLSSGGQVAVLELRKPGRLPDTALPTLQNGAAVTDLAWDPFDPHRLAVAGEDARIRLWRVPAEGLEEVLTTPETVLTGHTEKICSLRFHPLAANVLASSSYDLTVRIWDLQAGADRLKLQGHQDQIFSLAWSPDGQQLATVCKDGRVRVYRPRSGPEPLQEGPGPKGGRGARIVWVCDGRCLLVSGFDSQSERQLLLYEAEALAGGPLAVLGLDVAPSTLLPSYDPDTGLVLLTGKGDTRVFLYELLPESPFFLECNSFTSPDPHKGLVLLPKTECDVREVELMRCLRLRQSSLEPVAFRLPRVRKEFFQDDVFPDTAVIWEPVLSAEAWLQGANGQPWLLSLQPPDMS | 11 µM | 
SDQQKKEELLNAMVAKLGNREDPLPQDSFEGVDEDEWD (domain or fragment) [human Coro7 CA (C-terminal Central-Acidic region of coronin 7)] |  | Kd [2]: 0.9 µM; Kd [3]: 1.9 µM
human Coro7 full length (Coro7 FL) (natural protein) MNRFRVSKFRHTEARPPRRESWISDIRAGTAPSCRNHIKSSCSLIAFNSDRPGVLGIVPLQGQGEDKRRVAHLGCHSDLVTDLDFSPFDDFLLATGSADRTVKLWRLPGPGQALPSAPGVVLGPEDLPVEVLQFHPTSDGILVSAAGTTVKVWDAAKQQPLTELAAHGDLVQSAVWSRDGALVGTACKDKQLRIFDPRTKPRASQSTQAHENSRDSRLAWMGTWEHLVSTGFNQMREREVKLWDTRFFSSALASLTLDTSLGCLVPLLDPDSGLLVLAGKGERQLYCYEVVPQQPALSPVTQCVLESVLRGAALVPRQALAVMSCEVLRVLQLSDTAIVPIGYHVPRKAVEFHEDLFPDTAGCVPATDPHSWWAGDNQQVQKVSLNPACRPHPSFTSCLVPPAEPLPDTAQPAVMETPVGDADASEGFSSPPSSLTSPSTPSSLGPSLSSTSGIGTSPSLRSLQSLLGPSSKFRHAQGTVLHRDSHITNLKGLNLTTPGESDGFCANKLRVAVPLLSSGGQVAVLELRKPGRLPDTALPTLQNGAAVTDLAWDPFDPHRLAVAGEDARIRLWRVPAEGLEEVLTTPETVLTGHTEKICSLRFHPLAANVLASSSYDLTVRIWDLQAGADRLKLQGHQDQIFSLAWSPDGQQLATVCKDGRVRVYRPRSGPEPLQEGPGPKGGRGARIVWVCDGRCLLVSGFDSQSERQLLLYEAEALAGGPLAVLGLDVAPSTLLPSYDPDTGLVLLTGKGDTRVFLYELLPESPFFLECNSFTSPDPHKGLVLLPKTECDVREVELMRCLRLRQSSLEPVAFRLPRVRKEFFQDDVFPDTAVIWEPVLSAEAWLQGANGQPWLLSLQPPDMSPVSQAPREAPARRAPSSAQYLEEKSDQQKKEELLNAMVAKLGNREDPLPQDSFEGVDEDEWD | 9.9 µM | Kd [4]: 37.4 µM; Kd [5]: 9.9 µM

Continued by falling Kd [1], values first:

Kd [1] | Binder | further results
5.5 µM | human Coro7 β1 (domain or fragment) MNRFRVSKFRHTEARPPRRESWISDIRAGTAPSCRNHIKSSCSLIAFNSDRPGVLGIVPLQGQGEDKRRVAHLGCHSDLVTDLDFSPFDDFLLATGSADRTVKLWRLPGPGQALPSAPGVVLGPEDLPVEVLQFHPTSDGILVSAAGTTVKVWDAAKQQPLTELAAHGDLVQSAVWSRDGALVGTACKDKQLRIFDPRTKPRASQSTQAHENSRDSRLAWMGTWEHLVSTGFNQMREREVKLWDTRFFSSALASLTLDTSLGCLVPLLDPDSGLLVLAGKGERQLYCYEVVPQQPALSPVTQCVLESVLRGAALVPRQALAVMSCEVLRVLQLSDTAIVPIGYHVPRKAVEFHEDLFPDTAGCVPATDPHSWWAGDNQQVQKVSLNPACRPHPSFTSCLV | 
5.2 µM | human Coro7 β1β2 (domain or fragment) MNRFRVSKFRHTEARPPRRESWISDIRAGTAPSCRNHIKSSCSLIAFNSDRPGVLGIVPLQGQGEDKRRVAHLGCHSDLVTDLDFSPFDDFLLATGSADRTVKLWRLPGPGQALPSAPGVVLGPEDLPVEVLQFHPTSDGILVSAAGTTVKVWDAAKQQPLTELAAHGDLVQSAVWSRDGALVGTACKDKQLRIFDPRTKPRASQSTQAHENSRDSRLAWMGTWEHLVSTGFNQMREREVKLWDTRFFSSALASLTLDTSLGCLVPLLDPDSGLLVLAGKGERQLYCYEVVPQQPALSPVTQCVLESVLRGAALVPRQALAVMSCEVLRVLQLSDTAIVPIGYHVPRKAVEFHEDLFPDTAGCVPATDPHSWWAGDNQQVQKVSLNPACRPHPSFTSCLVPPAEPLPDTAQPAVMETPVGDADASEGFSSPPSSLTSPSTPSSLGPSLSSTSGIGTSPSLRSLQSLLGPSSKFRHAQGTVLHRDSHITNLKGLNLTTPGESDGFCANKLRVAVPLLSSGGQVAVLELRKPGRLPDTALPTLQNGAAVTDLAWDPFDPHRLAVAGEDARIRLWRVPAEGLEEVLTTPETVLTGHTEKICSLRFHPLAANVLASSSYDLTVRIWDLQAGADRLKLQGHQDQIFSLAWSPDGQQLATVCKDGRVRVYRPRSGPEPLQEGPGPKGGRGARIVWVCDGRCLLVSGFDSQSERQLLLYEAEALAGGPLAVLGLDVAPSTLLPSYDPDTGLVLLTGKGDTRVFLYELLPESPFFLECNSFTSPDPHKGLVLLPKTECDVREVELMRCLRLRQSSLEPVAFRLPRVRKEFFQDDVFPDTAVIWEPVLSAEAWLQGANGQPWLLSLQPPDMS | 
